For experiment [1], the target named is EGFP-Pro(K10R) (Streptomyces mobaraensis). The experiment can be described thus: BLI.
The target of experiment [2] is EGFP-Pro(K10R/Y12A) (Streptomyces mobaraensis). The experiment can be described thus: BLI. On the technique in general: BLI is a label-free optical method that tracks binding on a fibre tip over time.

By Kd is commonly meant the concentration at which binding is half-saturated. The low end stands for a tighter complex, the high end for a looser complex.

B1: ΔproMTG lacking the C-terminal His-tag (recombinant mature microbial transglutaminase) (enzyme)
chain: DSDDRVTPPAEPLDRMPDPYRPSYGRAETVVNNYIRKWQQVYSHRDGRKQQMTEEQREWLSYGCVGVTWVNSGQYPTNRLAFASFDEDRFKNELKNGRPRSGETRAEFEGRVAKESFDEEKGFQRAREVASVMNRALENAHDESAYLDNLKKELANGNDALRNEDARSPFYSALRNTPSFKERNGGNHDPSRMKAVIYSKHFWSGQDRSSSADKRKYGDPDAFRPAPGTGLVDMSRDRNIPRSPTSPGEGFVNFDYGWFGAQTEADADKTVWTHGNHYHAPNGSLGAMHVYESKFRNWSEGYSDFDRGAYVITFIPKSWNTAPDKVKQGWP
With B1, the Kd in experiment [1] was found to be 0.019 µM; in experiment [2], 7.85 µM.
